For test [1], the target named is Rev (Human immunodeficiency virus 1) (UniProt P04325). As to conditions: cited from earlier work.
For test [2], the target named is biotinylated HIV-1 Rev with C-terminal Avitag (HIV-1, UniProt P04616). Briefly: ELISA. (ELISA stands for enzyme-linked immunosorbent assay.)
biotinylated HIV-1 Rev with C-terminal Avitag, sequence (P04616 whole entry): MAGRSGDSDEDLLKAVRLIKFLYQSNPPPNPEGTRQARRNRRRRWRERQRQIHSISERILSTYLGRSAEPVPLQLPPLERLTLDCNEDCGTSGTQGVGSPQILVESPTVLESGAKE

In the case of Rev (from UniProt P04325), the Kd (usually the concentration at which binding is half-saturated) in test [1] is 1000 nM.

B1: chimeric rabbit/human Fab SJS-R1 as the selected phage display clone in pC3C (Fab, V domains shown)
VH: QEQLVESGGRLVTPGTALTLTCKVSGFSLSGFWLNWVRQAPGKGLEWVGAIYRGSGSEWYASWAKGRFTISDTSTTVTLKLTSPTTEDTATYFCAADTTDNGYFTIWGPGTLVTVSS
VL: ELVMTQTPSSVSEPVGGTVTIKCQASQSISSWLSWYQQKPGQPPKLLIYDASNLASGVPSRFMGSGSGTEYTLTISGVQREDAATYYCLGGYPAASYRTAFGGGTELEII
As for B1, in test [2], the binding result is on record as “binds”.

The record behind these values is paper PMC2851401 (Journal of molecular biology, 2010).
